In paper PMC9482650, “Quantitative fragmentomics allow affinity mapping of interactomes” (Nature Communications, 2022):

T1: RAPGEF6, Q8TEU7
T1 sequence (Q8TEU7 525-625, limits assumed, looked up): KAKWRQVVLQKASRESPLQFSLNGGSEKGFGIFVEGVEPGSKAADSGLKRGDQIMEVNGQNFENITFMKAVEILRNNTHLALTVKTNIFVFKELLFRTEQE

T2: APBA2_1, Q99767
T2 sequence (Q99767 563-664, limits assumed, looked up): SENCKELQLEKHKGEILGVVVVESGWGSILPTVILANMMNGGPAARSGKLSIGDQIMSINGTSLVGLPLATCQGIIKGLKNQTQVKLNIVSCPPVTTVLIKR

T3: RHPN1, Q8TCX5
T3 sequence (Q8TCX5 508-602, limits assumed, looked up): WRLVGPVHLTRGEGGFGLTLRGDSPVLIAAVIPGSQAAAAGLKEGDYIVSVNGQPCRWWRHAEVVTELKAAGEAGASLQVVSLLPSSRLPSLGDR

T4: DFNB31_3, Q9P202
T4 sequence (Q9P202 811-907, limits assumed, looked up): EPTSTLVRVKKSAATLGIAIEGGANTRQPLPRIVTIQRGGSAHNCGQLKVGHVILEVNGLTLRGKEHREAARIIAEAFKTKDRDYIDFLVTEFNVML

T5: FRMPD1, Q5SYB0
T5 sequence (Q5SYB0 52-145, limits assumed, looked up): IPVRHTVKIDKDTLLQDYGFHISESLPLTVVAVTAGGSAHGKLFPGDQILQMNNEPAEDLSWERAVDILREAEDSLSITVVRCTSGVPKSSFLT

T6: PTPN13_1, Q12923
T6 sequence (Q12923 1088-1188, limits assumed, looked up): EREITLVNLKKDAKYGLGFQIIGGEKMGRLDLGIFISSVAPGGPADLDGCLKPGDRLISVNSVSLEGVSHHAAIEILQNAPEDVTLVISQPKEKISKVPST

T7: GRIP1_2, Q9Y3R0
T7 sequence (Q9Y3R0 145-248, limits assumed, looked up): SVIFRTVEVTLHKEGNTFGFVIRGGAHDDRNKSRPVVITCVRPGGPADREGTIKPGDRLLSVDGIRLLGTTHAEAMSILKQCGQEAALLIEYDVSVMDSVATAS

T8: MPDZ_5, O75970
T8 sequence (O75970 695-796, limits assumed, looked up): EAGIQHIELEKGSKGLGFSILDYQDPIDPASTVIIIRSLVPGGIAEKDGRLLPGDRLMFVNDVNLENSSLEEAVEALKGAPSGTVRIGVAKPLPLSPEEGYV

T9: DLG3_3, Q92796
T9 sequence (Q92796 374-475, limits assumed, looked up): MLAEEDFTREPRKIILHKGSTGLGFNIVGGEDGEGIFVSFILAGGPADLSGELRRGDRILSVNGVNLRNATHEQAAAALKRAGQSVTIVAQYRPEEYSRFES

T10: PDZD2_2, O15018
T10 sequence (O15018 329-429, limits assumed, looked up): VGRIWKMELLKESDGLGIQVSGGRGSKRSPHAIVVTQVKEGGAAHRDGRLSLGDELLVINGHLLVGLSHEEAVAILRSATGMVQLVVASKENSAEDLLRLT

T11: MPDZ_12, O75970
T11 sequence (O75970 1857-1958, limits assumed, looked up): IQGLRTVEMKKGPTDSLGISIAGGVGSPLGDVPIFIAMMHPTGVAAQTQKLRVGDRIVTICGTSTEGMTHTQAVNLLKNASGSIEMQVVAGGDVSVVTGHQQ

T12: LNX2_3, Q8N448
T12 sequence (Q8N448 463-564, limits assumed, looked up): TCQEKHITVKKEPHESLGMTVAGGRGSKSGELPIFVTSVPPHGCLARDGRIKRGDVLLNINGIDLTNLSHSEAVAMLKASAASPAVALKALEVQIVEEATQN

B1: MYOZ2, Q9NPC6 (peptide)
chain: DTTVPESEDL
B2: SLC22A12, Q96S37 (peptide)
chain: GNSVLKSTQF
B3: MYOZ3, Q8TDC0 (peptide)
chain: VRNLPESEEL

Target: T1, RAPGEF6, Q8TEU7
Experiment: holdup assay
Set-up: key: below the threshold = too weak to quantify, mostly under pKd 3.1 to 4
Details: plain residues with an end cap or a label only (N-terminal biotin on a linker: ado-ado)

pKd | Binder
below the threshold | B1
below the threshold | B2
below the threshold | B3

Target: GRIP2_7, Q9C0E4
Sequence (Q9C0E4 934-1023): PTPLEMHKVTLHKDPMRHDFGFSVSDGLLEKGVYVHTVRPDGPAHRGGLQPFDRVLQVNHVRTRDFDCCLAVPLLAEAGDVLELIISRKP
Experiment: holdup assay
Set-up: key: below the threshold = too weak to quantify, mostly under pKd 3.1 to 4
Details: plain residues with an end cap or a label only (N-terminal biotin on a linker: ado-ado)

pKd | Binder
below the threshold | B1
below the threshold | B2
below the threshold | B3

Target: T2, APBA2_1, Q99767
Experiment: holdup assay
Set-up: key: below the threshold = too weak to quantify, mostly under pKd 3.1 to 4
Details: plain residues with an end cap or a label only (N-terminal biotin on a linker: ado-ado)

pKd | Binder
below the threshold | B1
below the threshold | B2
below the threshold | B3

Target: T3, RHPN1, Q8TCX5
Experiment: holdup assay
Set-up: key: below the threshold = too weak to quantify, mostly under pKd 3.1 to 4
Details: plain residues with an end cap or a label only (N-terminal biotin on a linker: ado-ado)

pKd | Binder
below the threshold | B1
below the threshold | B2
below the threshold | B3

Target: LNX1_2, Q8TBB1
Sequence (Q8TBB1 371-470): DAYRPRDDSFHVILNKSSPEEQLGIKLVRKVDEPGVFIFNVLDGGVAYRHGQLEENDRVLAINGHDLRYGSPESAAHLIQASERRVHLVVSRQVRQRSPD
Experiment: holdup assay
Set-up: key: below the threshold = too weak to quantify, mostly under pKd 3.1 to 4
Details: plain residues with an end cap or a label only (N-terminal biotin on a linker: ado-ado)

pKd | Binder
below the threshold | B1
below the threshold | B2
below the threshold | B3

Target: SNX27, Q96L92
Experiment: holdup assay
Set-up: key: below the threshold = too weak to quantify, mostly under pKd 3.1 to 4
Details: plain residues with an end cap or a label only (N-terminal biotin on a linker: ado-ado)

pKd | Binder
3.65 | B1
4.95 | B2
3.71 | B3

Target: HTRA2, O43464
Sequence (O43464 355-458): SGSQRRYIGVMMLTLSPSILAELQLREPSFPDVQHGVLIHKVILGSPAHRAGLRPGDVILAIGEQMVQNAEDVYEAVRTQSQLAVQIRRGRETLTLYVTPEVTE
Experiment: holdup assay
Set-up: key: below the threshold = too weak to quantify, mostly under pKd 3.1 to 4
Details: plain residues with an end cap or a label only (N-terminal biotin on a linker: ado-ado)

pKd | Binder
below the threshold | B1
below the threshold | B2
below the threshold | B3

Target: Inadl_8, Q8NI35
Sequence (Q8NI35 1425-1530): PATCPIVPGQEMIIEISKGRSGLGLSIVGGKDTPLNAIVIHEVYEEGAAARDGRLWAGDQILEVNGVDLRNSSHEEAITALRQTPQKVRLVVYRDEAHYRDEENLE
Experiment: holdup assay
Set-up: key: below the threshold = too weak to quantify, mostly under pKd 3.1 to 4
Details: plain residues with an end cap or a label only (N-terminal biotin on a linker: ado-ado)

pKd | Binder
below the threshold | B1
below the threshold | B2
below the threshold | B3

Target: DLG2_2, Q15700
Sequence (Q15700 189-283): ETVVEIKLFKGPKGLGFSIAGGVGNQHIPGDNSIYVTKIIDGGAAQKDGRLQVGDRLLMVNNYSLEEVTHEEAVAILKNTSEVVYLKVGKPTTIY
Experiment: holdup assay
Set-up: key: below the threshold = too weak to quantify, mostly under pKd 3.1 to 4
Details: plain residues with an end cap or a label only (N-terminal biotin on a linker: ado-ado)

pKd | Binder
below the threshold | B1
below the threshold | B2
below the threshold | B3

Target: T4, DFNB31_3, Q9P202
Experiment: holdup assay
Set-up: key: below the threshold = too weak to quantify, mostly under pKd 3.1 to 4
Details: plain residues with an end cap or a label only (N-terminal biotin on a linker: ado-ado)

pKd | Binder
below the threshold | B1
3.56 | B2
below the threshold | B3

Target: T5, FRMPD1, Q5SYB0
Experiment: holdup assay
Set-up: key: below the threshold = too weak to quantify, mostly under pKd 3.1 to 4
Details: plain residues with an end cap or a label only (N-terminal biotin on a linker: ado-ado)

pKd | Binder
below the threshold | B1
below the threshold | B2
below the threshold | B3

Target: NOS1, P29475
Sequence (P29475 9-101): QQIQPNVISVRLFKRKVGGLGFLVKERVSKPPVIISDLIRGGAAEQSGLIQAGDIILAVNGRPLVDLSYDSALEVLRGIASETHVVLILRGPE
Experiment: holdup assay
Set-up: key: below the threshold = too weak to quantify, mostly under pKd 3.1 to 4
Details: plain residues with an end cap or a label only (N-terminal biotin on a linker: ado-ado)

pKd | Binder
below the threshold | B1
3.72 | B2
below the threshold | B3

Target: NHERF4_1, Q86UT5-2
Sequence (Q86UT5 other isoform, or with tags, fused parts or gaps): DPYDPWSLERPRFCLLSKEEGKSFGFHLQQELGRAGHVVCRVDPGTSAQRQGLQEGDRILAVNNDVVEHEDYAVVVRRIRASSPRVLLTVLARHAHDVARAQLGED
Experiment: holdup assay
Set-up: key: below the threshold = too weak to quantify, mostly under pKd 3.1 to 4
Details: plain residues with an end cap or a label only (N-terminal biotin on a linker: ado-ado)

pKd | Binder
3.92 | B1
4.1 | B2
4.3 | B3

Target: T6, PTPN13_1, Q12923
Experiment: holdup assay
Set-up: key: below the threshold = too weak to quantify, mostly under pKd 3.1 to 4
Details: plain residues with an end cap or a label only (N-terminal biotin on a linker: ado-ado)

pKd | Binder
below the threshold | B1
below the threshold | B2
below the threshold | B3

Target: MAGI2_2, Q86UL8
Sequence (Q86UL8 410-522): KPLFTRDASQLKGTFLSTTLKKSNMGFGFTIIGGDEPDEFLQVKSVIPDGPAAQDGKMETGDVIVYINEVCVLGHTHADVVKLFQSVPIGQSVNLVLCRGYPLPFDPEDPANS
Experiment: holdup assay
Set-up: key: below the threshold = too weak to quantify, mostly under pKd 3.1 to 4
Details: plain residues with an end cap or a label only (N-terminal biotin on a linker: ado-ado)

pKd | Binder
below the threshold | B1
below the threshold | B2
below the threshold | B3

Target: T7, GRIP1_2, Q9Y3R0
Experiment: holdup assay
Set-up: key: below the threshold = too weak to quantify, mostly under pKd 3.1 to 4
Details: plain residues with an end cap or a label only (N-terminal biotin on a linker: ado-ado)

pKd | Binder
below the threshold | B1
below the threshold | B2
below the threshold | B3

Target: T8, MPDZ_5, O75970
Experiment: holdup assay
Set-up: key: below the threshold = too weak to quantify, mostly under pKd 3.1 to 4
Details: plain residues with an end cap or a label only (N-terminal biotin on a linker: ado-ado)

pKd | Binder
below the threshold | B1
below the threshold | B2
below the threshold | B3

Target: T9, DLG3_3, Q92796
Experiment: holdup assay
Set-up: key: below the threshold = too weak to quantify, mostly under pKd 3.1 to 4
Details: plain residues with an end cap or a label only (N-terminal biotin on a linker: ado-ado)

pKd | Binder
below the threshold | B1
below the threshold | B2
below the threshold | B3

Target: FRMPD2_3, Q68DX3
Sequence (Q68DX3 1073-1166): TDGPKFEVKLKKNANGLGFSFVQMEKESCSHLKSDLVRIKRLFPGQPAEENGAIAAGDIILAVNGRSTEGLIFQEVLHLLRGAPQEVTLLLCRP
Experiment: holdup assay
Set-up: key: below the threshold = too weak to quantify, mostly under pKd 3.1 to 4
Details: plain residues with an end cap or a label only (N-terminal biotin on a linker: ado-ado)

pKd | Binder
below the threshold | B1
below the threshold | B2
below the threshold | B3

Target: T10, PDZD2_2, O15018
Experiment: holdup assay
Set-up: key: below the threshold = too weak to quantify, mostly under pKd 3.1 to 4
Details: plain residues with an end cap or a label only (N-terminal biotin on a linker: ado-ado)

pKd | Binder
below the threshold | B1
below the threshold | B2
below the threshold | B3

Target: AHNAK1, Q09666
Sequence (Q09666 4-100): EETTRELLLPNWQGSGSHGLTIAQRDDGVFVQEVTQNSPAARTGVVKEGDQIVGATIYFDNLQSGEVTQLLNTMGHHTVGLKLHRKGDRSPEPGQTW
Experiment: holdup assay
Set-up: key: below the threshold = too weak to quantify, mostly under pKd 3.1 to 4
Details: plain residues with an end cap or a label only (N-terminal biotin on a linker: ado-ado)

pKd | Binder
below the threshold | B1
below the threshold | B2
below the threshold | B3

Target: GRIP2_3, Q9C0E4
Sequence (Q9C0E4 238-339): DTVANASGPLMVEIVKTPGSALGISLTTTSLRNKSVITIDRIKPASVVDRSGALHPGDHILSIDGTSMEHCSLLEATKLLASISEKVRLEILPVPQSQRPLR
Experiment: holdup assay
Set-up: key: below the threshold = too weak to quantify, mostly under pKd 3.1 to 4
Details: plain residues with an end cap or a label only (N-terminal biotin on a linker: ado-ado)

pKd | Binder
below the threshold | B1
below the threshold | B2
below the threshold | B3

Target: T11, MPDZ_12, O75970
Experiment: holdup assay
Set-up: key: below the threshold = too weak to quantify, mostly under pKd 3.1 to 4
Details: plain residues with an end cap or a label only (N-terminal biotin on a linker: ado-ado)

pKd | Binder
below the threshold | B1
below the threshold | B2
below the threshold | B3

Target: T12, LNX2_3, Q8N448
Experiment: holdup assay
Set-up: key: below the threshold = too weak to quantify, mostly under pKd 3.1 to 4
Details: plain residues with an end cap or a label only (N-terminal biotin on a linker: ado-ado)

pKd | Binder
below the threshold | B1
below the threshold | B2
below the threshold | B3
